Here are results for one protein from patent US8940861B2, “Variants of ancestral uricases and uses thereof” (Georgia Tech Research Corporation, priority 2010, dated 2015).

Substrate in the data set: O=c1[nH]c(=O)c2[nH]c(=O)[nH]c2[nH]1
As to the kind of experiment: purified protein, by the assay type. As to conditions: other: 0.1M Na2HPO4/Na2H2PO4, pH 7.4, 24° C.

B1: pig uricase, SEQ ID NO:10 (Sus scrofa) (protein)
chain: MAHYRNDYKKNDEVEFVRTGYGKDMIKVLHIQRDGKYHSIKEVATSVQLTLSSKKDYLHGDNSDVIPTDTIKNTVNVLAKFKGIKSIETFAVTICEHFLSSFKHVIRAQVYVEEVPWKRFEKNGVKHVHAFIYTPTGTHFCEVEQIRNGPPVIHSGIKDLKVLKTTQSGFEGFIKDQFTTLPEVKDRCFATQVYCKWRYHQGRDVDFEATWDTVRSIVLQKFAGPYDKGEYSPSVQKTLYDIQVLTLGQVPEIEDMEISLPNIHYLNIDMSKMGLINKEEVLLPLDNPYGRITGTVKRKLTSRL
One may read the Km as the concentration of substrate that gives half-maximal velocity. In general, kcat refers to the number of substrate molecules converted per active site and unit of time at saturation. Regarding B1, the Km is 2.1 µM and the kcat was 7.83 s⁻¹.
